Measurements reported in patent US12104181B2, “Compositions and methods for treating viral infections targeting TRIM7” (THE BOARD OF REGENTS OF THE UNIVERSITY OF TEXAS SYSTEM, priority 2021, dated 2024).

B1: TRIM8: human RING type E3 ligase expressed from lentiviral vector (protein, UniProt Q9BZR9 1-551, looked up)
E3 ubiquitin-protein ligase …: MAENWKNCFEEELICPICLHVFVEPVQLPCKHNFCRGCIGEAWAKDSGLVRCPECNQAYNQKPGLEKNLKLTNIVEKFNALHVEKPPAALHCVFCRRGPPLPAQKVCLRCEAPCCQSHVQTHLQQPSTARGHLLVEADDVRAWSCPQHNAYRLYHCEAEQVAVCQYCCYYSGAHQGHSVCDVEIRRNEIRKMLMKQQDRLEEREQDIEDQLYKLESDKRLVEEKVNQLKEEVRLQYEKLHQLLDEDLRQTVEVLDKAQAKFCSENAAQALHLGERMQEAKKLLGSLQLLFDKTEDVSFMKNTKSVKILMDRTQTCTSSSLSPTKIGHLNSKLFLNEVAKKEKQLRKMLEGPFSTPVPFLQSVPLYPCGVSSSGAEKRKHSTAFPEASFLETSSGPVGGQYGAAGTASGEGQSGQPLGPCSSTQHLVALPGGAQPVHSSPVFPPSQYPNGSAAQQPMLPQYGGRKILVCSVDNCYCSSVANHGGHQPYPRSGHFPWTVPSQEYSHPLPPTPSVPQSLPSLAVRDWLDASQQPGHQDFYRVYGQPSTKHYVTS
B2: TRIM10: human RING type E3 ligase expressed from lentiviral vector (protein, UniProt Q9UDY6 1-481, looked up)
Tripartite motif-containing …: MASAASVTSLADEVNCPICQGTLREPVTIDCGHNFCRACLTRYCEIPGPDLEESPTCPLCKEPFRPGSFRPNWQLANVVENIERLQLVSTLGLGEEDVCQEHGEKIYFFCEDDEMQLCVVCREAGEHATHTMRFLEDAAAPYREQIHKCLKCLRKEREEIQEIQSRENKRMQVLLTQVSTKRQQVISEFAHLRKFLEEQQSILLAQLESQDGDILRQRDEFDLLVAGEICRFSALIEELEEKNERPARELLTDIRSTLIRCETRKCRKPVAVSPELGQRIRDFPQQALPLQREMKMFLEKLCFELDYEPAHISLDPQTSHPKLLLSEDHQRAQFSYKWQNSPDNPQRFDRATCVLAHTGITGGRHTWVVSIDLAHGGSCTVGVVSEDVQRKGELRLRPEEGVWAVRLAWGFVSALGSFPTRLTLKEQPRQVRVSLDYEVGWVTFTNAVTREPIYTFTASFTRKVIPFFGLWGRGSSFSLSS
modifications: lentiviral expression
notes: human RING type E3 ligase expressed from lentiviral vector
B3: TRIM9: human RING type E3 ligase expressed from lentiviral vector (protein, UniProt Q9C026 1-710, looked up)
E3 ubiquitin-protein ligase …: MEEMEEELKCPVCGSFYREPIILPCSHNLCQACARNILVQTPESESPQSHRAAGSGVSDYDYLDLDKMSLYSEADSGYGSYGGFASAPTTPCQKSPNGVRVFPPAMPPPATHLSPALAPVPRNSCITCPQCHRSLILDDRGLRGFPKNRVLEGVIDRYQQSKAAALKCQLCEKAPKEATVMCEQCDVFYCDPCRLRCHPPRGPLAKHRLVPPAQGRVSRRLSPRKVSTCTDHELENHSMYCVQCKMPVCYQCLEEGKHSSHEVKALGAMWKLHKSQLSQALNGLSDRAKEAKEFLVQLRNMVQQIQENSVEFEACLVAQCDALIDALNRRKAQLLARVNKEHEHKLKVVRDQISHCTVKLRQTTGLMEYCLEVIKENDPSGFLQISDALIRRVHLTEDQWGKGTLTPRMTTDFDLSLDNSPLLQSIHQLDFVQVKASSPVPATPILQLEECCTHNNSATLSWKQPPLSTVPADGYILELDDGNGGQFREVYVGKETMCTVDGLHFNSTYNARVKAFNKTGVSPYSKTLVLQTSEVAWFAFDPGSAHSDIILSNDNLTVTCSSYDDRVVLGKTGFSKGIHYWELTVDRYDNHPDPAFGVARMDVMKDVMLGKDDKAWAMYVDNNRSWFMHNNSHTNRTEGGITKGATIGVLLDLNRKNLTFFINDEQQGPIAFDNVEGLFFPAVSLNRNVQVTLHTGLPVPDFYSSRASIA
B4: TRIM1: human RING type E3 ligase expressed from lentiviral vector (protein, UniProt Q9UJV3 1-735, looked up)
Probable E3 ubiquitin-protein …: MGESPASVVLNASGGLFSLKMETLESELTCPICLELFEDPLLLPCAHSLCFSCAHRILVSSCSSGESIEPITAFQCPTCRYVISLNHRGLDGLKRNVTLQNIIDRFQKASVSGPNSPSESRRERTYRPTTAMSSERIACQFCEQDPPRDAVKTCITCEVSYCDRCLRATHPNKKPFTSHRLVEPVPDTHLRGITCLDHENEKVNMYCVSDDQLICALCKLVGRHRDHQVASLNDRFEKLKQTLEMNLTNLVKRNSELENQMAKLIQICQQVEVNTAMHEAKLMEECDELVEIIQQRKQMIAVKIKETKVMKLRKLAQQVANCRQCLERSTVLINQAEHILKENDQARFLQSAKNIAERVAMATASSQVLIPDINFNDAFENFALDFSREKKLLEGLDYLTAPNPPSIREELCTASHDTITVHWISDDEFSISSYELQYTIFTGQANFISKSWCSWGLWPEIRKCKEAVSCSRLAGAPRGLYNSVDSWMIVPNIKQNHYTVHGLQSGTRYIFIVKAINQAGSRNSEPTRLKTNSQPFKLDPKMTHKKLKISNDGLQMEKDESSLKKSHTPERFSGTGCYGAAGNIFIDSGCHYWEVVMGSSTWYAIGIAYKSAPKNEWIGKNASSWVFSRCNSNFVVRHNNKEMLVDVPPHLKRLGVLLDYDNNMLSFYDPANSLHLHTFDVTFILPVCPTFTIWNKSLMILSGLPAPDFIDYPERQECNCRPQESPYVSGMKTCH
B5: RNF113: human RING type E3 ligase expressed from lentiviral vector (protein, UniProt O15541 2-343, looked up)
E3 ubiquitin-protein ligase …: AEQLSPGKAVDQVCTFLFKKPGRKGAAGRRKRPACDPEPGESGSSSDEGCTVVRPEKKRVTHNPMIQKTRDSGKQKAAYGDLSSEEEEENEPESLGVVYKSTRSAKPVGPEDMGATAVYELDTEKERDAQAIFERSQKIQEELRGKEDDKIYRGINNYQKYMKPKDTSMGNASSGMVRKGPIRAPEHLRATVRWDYQPDICKDYKETGFCGFGDSCKFLHDRSDYKHGWQIERELDEGRYGVYEDENYEVGSDDEEIPFKCFICRQSFQNPVVTKCRHYFCESCALQHFRTTPRCYVCDQQTNGVFNPAKELIAKLEKHRATGEGGASDLPEDPDEDAIPIT
B6: TRIM6: human RING type E3 ligase expressed from lentiviral vector (protein, UniProt Q9C030 1-488, looked up)
Tripartite motif-containing …: MTSPVLVDIREEVTCPICLELLTEPLSIDCGHSFCQACITPNGRESVIGQEGERSCPVCQTSYQPGNLRPNRHLANIVRRLREVVLGPGKQLKAVLCADHGEKLQLFCQEDGKVICWLCERSQEHRGHHTFLVEEVAQEYQEKFQESLKKLKNEEQEAEKLTAFIREKKTSWKNQMEPERCRIQTEFNQLRNILDRVEQRELKKLEQEEKKGLRIIEEAENDLVHQTQSLRELISDLERRCQGSTMELLQDVSDVTERSEFWTLRKPEALPTKLRSMFRAPDLKRMLRVCRELTDVQSYWVDVTLNPHTANLNLVLAKNRRQVRFVGAKVSGPSCLEKHYDCSVLGSQHFSSGKHYWEVDVAKKTAWILGVCSNSLGPTFSFNHFAQNHSAYSRYQPQSGYWVIGLQHNHEYRAYEDSSPSLLLSMTVPPRRVGVFLDYEAGTVSFYNVTNHGFPIYTFSKYYFPTTLCPYFNPCNCVIPMTLRRPSS
B7: RNF141: human RING type E3 ligase expressed from lentiviral vector (protein, UniProt Q8WVD5 2-230, looked up)
RING finger protein 141: GQQISDQTQLVINKLPEKVAKHVTLVRESGSLTYEEFLGRVAELNDVTAKVASGQEKHLLFEVQPGSDSSAFWKVVVRVVCTKINKSSGIVEASRIMNLYQFIQLYKDITSQAAGVLAQSSTSEEPDENSSSVTSCQASLWMGRVKQLTDEEECCICMDGRADLILPCAHSFCQKCIDKWSDRHRNCPICRLQMTGANESWVVSDAPTEDDMANYILNMADEAGQPHRP
B8: TRIM2: human RING type E3 ligase expressed from lentiviral vector (protein, UniProt Q9C040 1-744, looked up)
Tripartite motif-containing …: MASEGTNIPSPVVRQIDKQFLICSICLERYKNPKVLPCLHTFCERCLQNYIPAHSLTLSCPVCRQTSILPEKGVAALQNNFFITNLMDVLQRTPGSNAEESSILETVTAVAAGKPLSCPNHDGNVMEFYCQSCETAMCRECTEGEHAEHPTVPLKDVVEQHKASLQVQLDAVNKRLPEIDSALQFISEIIHQLTNQKASIVDDIHSTFDELQKTLNVRKSVLLMELEVNYGLKHKVLQSQLDTLLQGQESIKSCSNFTAQALNHGTETEVLLVKKQMSEKLNELADQDFPLHPRENDQLDFIVETEGLKKSIHNLGTILTTNAVASETVATGEGLRQTIIGQPMSVTITTKDKDGELCKTGNAYLTAELSTPDGSVADGEILDNKNGTYEFLYTVQKEGDFTLSLRLYDQHIRGSPFKLKVIRSADVSPTTEGVKRRVKSPGSGHVKQKAVKRPASMYSTGKRKENPIEDDLIFRVGTKGRNKGEFTNLQGVAASTNGKILIADSNNQCVQIFSNDGQFKSRFGIRGRSPGQLQRPTGVAVHPSGDIIIADYDNKWVSIFSSDGKFKTKIGSGKLMGPKGVSVDRNGHIIVVDNKACCVFIFQPNGKIVTRFGSRGNGDRQFAGPHFAAVNSNNEIIITDFHNHSVKVFNQEGEFMLKFGSNGEGNGQFNAPTGVAVDSNGNIIVADWGNSRIQVFDGSGSFLSYINTSADPLYGPQGLALTSDGHVVVADSGNHCFKVYRYLQ
B9: TRIM4: human RING type E3 ligase expressed from lentiviral vector (protein, UniProt Q9C037 1-500, looked up)
E3 ubiquitin-protein ligase …: MEAEDIQEELTCPICLDYFQDPVSIECGHNFCRGCLHRNWAPGGGPFPCPECRHPSAPAALRPNWALARLTEKTQRRRLGPVPPGLCGRHWEPLRLFCEDDQRPVCLVCRESQEHQTHAMAPIDEAFESYRTGNFDIHVDEWKRRLIRLLLYHFKQEEKLLKSQRNLVAKMKKVMHLQDVEVKNATQWKDKIKSQRMRISTEFSKLHNFLVEEEDLFLQRLNKEEEETKKKLNENTLKLNQTIASLKKLILEVGEKSQAPTLELLQNPKEVLTRSEIQDVNYSLEAVKVKTVCQIPLMKEMLKRFQVAVNLAEDTAHPKLVFSQEGRYVKNTASASSWPVFSSAWNYFAGWRNPQKTAFVERFQHLPCVLGKNVFTSGKHYWEVESRDSLEVAVGVCREDVMGITDRSKMSPDVGIWAIYWSAAGYWPLIGFPGTPTQQEPALHRVGVYLDRGTGNVSFYSAVDGVHLHTFSCSSVSRLRPFFWLSPLASLVIPPVTDRK

Tested on: coxsackievirus B3 (CVB3-GFP)
Assay type: cell-based
Settings: HeLa cells, replicate R1; for Percent Infected R1: GFP-positive cells within RFP-positive gate

Molecule | Percent Infected R1 | Z score R1
B1 | 70.1% | −0.235
B2 | 58.7% | −0.38
B3 | 81.3% | −0.093
B4 | 82.1% | −0.083
B5 | 92% | 0.043
B6 | 67.4% | −0.27
B7 | 87.2% | −0.02
B8 | 62.1% | −0.337
B9 | 67.8% | −0.265
